From US20230124851A1 (INHIBRX LNC, published 2023)
Changes are numbered by the printed parent chain. One block for each binder: values may come before it.

What was measured:
[1] = molecular target: T1, CD3 on the surface of human T cells (human, UniProt P07766 23-207); experiment: flow cytometry on primary human T cells, anti-human Fc secondary
T1 construct: whole, on cells; Part of the CD3/TCR complex on cells; also called CD3 epsilon
Experimental: (§1) Binding of exemplary multispecific constructs containing an antigen-binding domain directed against B7H3 were assessed for binding to B7H3 positive A375 tumor cells or primary T-cells. The constructs were generated containing antigen-binding domain(s) that were either sdAbs or a FABs, and that were positioned either only N-terminal to the Fc or both N-terminal to the Fc and C-terminal to the anti-CD3 binding domain (see FIGS. 30A and 30C and Table E5). Among the various formats of constructs tested included: sdAb-Fc-dsFV-sdAb (cx3072, cx5952) sdAb-Fc-FV (cx6079), sdAb-Fc-dsFV (cs6080, cx6081), MAB-FV (cx5067) and MAB-dsFV (cx6083, cx6084), where the FV represents the anti-CD3 binding domain composed of VH and VL domain pairs and “ds” notes disulfide stabilized via an engineered interdomain disulfide bond.
(§2) Binding was assessed as described above via flow cytometry using a fluorophore-conjugated anti-human Fc secondary antibody. cx3072 bound to A375 cells with high affinity (FIG. 31A) but not to isolated T-cells (FIG. 31B). […] The B7H3 -targeting sdAb containing constructs (cx5952, cx6079, cx6080, and cx6081) bound to B7H3 positive cells with similar affinities (depicted in FIG. 31E), with cx5952 displaying higher maximal binding. cx6079, cx6080 and cx6081 contain two identical B7H3-targeting sdAbs, whereas cx5952, and cx3072 contain two distinct B7H3-targeting sdAb that bind different epitopes. The MAB-FV, cx5067, contains two identical B7H3-targeting FAB domains.

[2] = molecular target: T2, human B7H3 (CD276) on the cell surface (human, UniProt Q5ZPR3 29-534); experiment: flow cytometry on A375 cells (B7H3+), anti-human Fc secondary
T2 construct: B7H3 on A375 and other B7H3-positive or transfected cells
T2 sequence: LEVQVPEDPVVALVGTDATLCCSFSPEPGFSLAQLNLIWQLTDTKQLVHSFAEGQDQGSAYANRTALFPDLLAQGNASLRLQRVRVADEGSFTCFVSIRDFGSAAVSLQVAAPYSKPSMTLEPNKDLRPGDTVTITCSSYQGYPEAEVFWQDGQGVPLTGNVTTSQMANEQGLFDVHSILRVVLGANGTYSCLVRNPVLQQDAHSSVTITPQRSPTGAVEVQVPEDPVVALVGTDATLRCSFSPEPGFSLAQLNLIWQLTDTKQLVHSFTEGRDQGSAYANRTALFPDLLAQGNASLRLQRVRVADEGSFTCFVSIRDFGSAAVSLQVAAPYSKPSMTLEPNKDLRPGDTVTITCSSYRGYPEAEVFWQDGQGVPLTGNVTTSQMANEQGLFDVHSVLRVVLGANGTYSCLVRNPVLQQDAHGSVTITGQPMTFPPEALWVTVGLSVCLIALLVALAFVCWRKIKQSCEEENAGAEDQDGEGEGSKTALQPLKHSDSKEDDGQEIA
Experimental: as §1, §2

[3] = molecular target: T2, human B7H3 (CD276) on the cell surface; experiment: flow cytometry titration on A375 cells (B7H3+); column head 'Affinity B7H3' (apparent)
Experimental: (§3) Binding of exemplary B7H3-targeting constrained CD3 engaging constructs set forth in Table E3 to CD3 on the surface of primary T cells or B7H3-expressing cells (A375) was assessed by flow cytometry. The T cells were primary T-cells that were negatively enriched from PBMCs isolated from healthy human donor peripheral blood leukopaks. Bound construct was detected with fluorophore-conjugated secondary antibodies specific for the human Fc (anti-human IgG APC secondary antibody) and binding was measured by flow cytometry. Cells incubated with secondary antibody only served as negative controls. Binding was compared to Dual-affinity Re-targeting Antibody (DART)-monomeric Fc format targeting B7H3 and CD3 (DART-Fc B7H3xCD3; see e.g. WO2017030926A1).
(§4) Table E4 summarizes the affinity of exemplary molecules for B7H3 or CD3, as determined from flow cytometry, in these studies.

[4] = molecular target: T1, CD3 on the surface of human T cells; experiment: flow cytometry on primary human T cells; column head 'Affinity CD3'
Experimental: as §3, §4

T1 sequence (P07766 23-207): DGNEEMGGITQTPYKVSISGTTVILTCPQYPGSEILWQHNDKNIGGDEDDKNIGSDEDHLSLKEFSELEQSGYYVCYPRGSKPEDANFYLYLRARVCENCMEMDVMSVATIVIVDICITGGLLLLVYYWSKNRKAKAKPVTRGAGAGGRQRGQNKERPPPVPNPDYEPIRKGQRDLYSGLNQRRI

B1: cx5952 (bispecific antibody)
chain 1: EVQLVESGGGEVQPGGSLRLSCAASGFSFSSNVMMWVRQAPGKGLEWVSTIYSSGTGTFYAESVKGRFTISRDNAKNTLYLQMSSLRPEDTAVYYCATSGPVRGWGPRSQGTLVTVKPPGGGGDKTHTCPPCPAPGGPSVFLFPPKPKDTLMISRTPEVTCVVVDVSHEDPEVKFNWYVDGVEVHNAKTKPREEQYNSTYRVVSVLTVLHQDWLNGKEYKCKVSNKALPAPIEKTISKAKGQPREPQVYTLPPCRDELTKNQVSLWCLVKGFYPSDIAVEWESNGQPENNYKTTPPVLDSDGSFFLYSKLTVDKSRWQQGNVFSCSVMHEALHNHYTQKSLSLSPGGGGGGSGGGGGSGGGGGSEVQLVESGGGLVQPGGSLRLSCAASGFTFNTYAMNWVRQAPGKCLEWVARIRSKYNNYATYYADSVKGRFTISRDDAKNTLYLQMSSLRAEDTAVYYCVRHGNFGNSYVSWFAYWGQGTLVTVKPGGGGEVQLVESGGGEVQPGGSLRLSCAASGFTFSSYHMSWFRQAPGKQRELVATSHHGGTTNYAGSVKGRFTISRDNAKNTVYLQMNTLRAEDTAVYYCKADHGYQGRGYWGQGTLVTVKP
chain 2: DKTHTCPPCPAPGGPSVFLFPPKPKDTLMISRTPEVTCVVVDVSHEDPEVKFNWYVDGVEVHNAKTKPREEQYNSTYRVVSVLTVLHQDWLNGKEYKCKVSNKALPAPIEKTISKAKGQPREPQVCTLPPSRDELTKNQVSLSCAVKGFYPSDIAVEWESNGQPENNYKTTPPVLDSDGSFFLVSKLTVDKSRWQQGNVFSCSVMHEALHNRYTQKSLSLSPGGGGGGSGGGGGSGGGGGSQAVVTQEPSLTVSPGGTVTLTCGSSTGAVTTSNYANWVQQKPGQAFRGLIGGTNKRAPGVPARFSGSLLGGKAALTISGAQPEDEADYYCALWYSNHWVFGCGTKLEIK
notes: also called sdAb-Fc-dsFV-sdAb
- binding result [1]: no binding
- binding result [2]: binds

B4: cx3243 (bispecific antibody, not shown: a dimerising Fc or GST)
chain 1: EVQLVESGGGEVQPGGSLRLSCAASGSTFSSYHMSWFRQAPGKQREPVATSHHGGTTNYAGSVKGRFTISRDNAKNTVYLQMNTLRAEDTAVYYCKADHGYQGRGYWGQGTLVTVKPGGGGGSGGGGGSGGGGGSEVQLVESGGGLVQPGGSLRLSCAASGFTFNTYAMNWVRQAPGKCLEWVARIRSKYNNYATYYADSVKGRFTISRDDAKNTLYLQMSSLRAEDTAVYYCVRHGNFGNSYVSWFAYWGQGTLVTVKPEVQLVESGGGEVQPGGSLRLSCAPSERTFSTYTMGWFRQAPGKEREFVAVVNWGGGSKYYAESVKGRFTISRDNAKNTVYLQMSSLRAEDTAVYYCAAGGAYSGPYYDTRQYTYWGQGTLVTVKP
chain 2: GGGGGSGGGGGSGGGGGSQAVVTQEPSLTVSPGGTVTLTCGSSTGAVTTSNYANWVQQKPGQAFRGLIGGTNKRAPGVPARFSGSLLGGKAALTISGAQPEDEADYYCALWYSNHWVFGCGTKLTVLEVQLLESGGGEVQPGGSLRLSCAASGFSFSINAMGWYRQAPGKRREFVAAIESGRNTVYAESVKGRFTISRDNAKNTVYLQMSSLRAEDTAVYYCGLLKGNRVVSPSVAYWGQGTLVTVKP
notes: chain 2 ends in the 4-1BB sdAb RH3v5-1
- Kd [3]: 0.477 nM
- Kd [4]: > 200 nM

B5: cx3855 (bispecific antibody)
chain 1: EVQLVESGGGEVQPGGSLRLSCAASGSTFSSYHMSWFRQAPGKQREPVATSHHGGTTNYAGSVKGRFTISRDNAKNTVYLQMNTLRAEDTAVYYCKADHGYQGRGYWGQGTLVTVKPDKTHTCPPCPAPGGPSVFLFPPKPKDTLMISRTPEVTCVVVDVSHEDPEVKFNWYVDGVEVHNAKTKPREEQYNSTYRVVSVLTVLHQDWLNGKEYKCKVSNKALPAPIEKTISKAKGQPREPQVYTLPPCRDELTKNQVSLWCLVKGFYPSDIAVEWESNGQPENNYKTTPPVLDSDGSFFLYSKLTVDKSRWQQGNVFSCSVMHEALHNHYTQKSLSLSPTGGSGGGGIEPDIGGSGGSEVQLVESGGGLVQPGGSLRLSCAASGFTFNTYAMNWVRQAPGKCLEWVARIRSKYNNYATYYADSVKGRFTISRDDAKNTLYLQMSSLRAEDTAVYYCVRHGNFGNSYVSWFAYWGQGTLVTVKPEVQLVESGGGEVQPGGSLRLSCAASGSTFSSYHMSWFRQAPGKQREPVATSHHGGTTNYAGSVKGRFTISRDNAKNTVYLQMNTLRAEDTAVYYCKADHGYQGRGYWGQGTLVTVKP
chain 2: DKTHTCPPCPAPGGPSVFLFPPKPKDTLMISRTPEVTCVVVDVSHEDPEVKFNWYVDGVEVHNAKTKPREEQYNSTYRVVSVLTVLHQDWLNGKEYKCKVSNKALPAPIEKTISKAKGQPREPQVCTLPPSRDELTKNQVSLSCAVKGFYPSDIAVEWESNGQPENNYKTTPPVLDSDGSFFLVSKLTVDKSRWQQGNVFSCSVMHEALHNRYTQKSLSLSPTGGSGGGGIEPDIGGSGGSQAVVTQEPSLTVSPGGTVTLTCGSSTGAVTTSNYANWVQQKPGQAFRGLIGGTNKRAPGVPARFSGSLLGGKAALTISGAQPEDEADYYCALWYSNHWVFGCGTKLTVLEVQLLESGGGEVQPGGSLRLSCAASGFSFSINAMGWYRQAPGKRREFVAAIESGRNTVYAESVKGRFTISRDNAKNTVYLQMSSLRAEDTAVYYCGLLKGNRVVSPSVAYWGQGTLVTVKP
notes: chain 2 ends in the 4-1BB sdAb RH3v5-1; Printed composition is the same as cx4904
- Kd [3]: 0.395 nM
- Kd [4]: > 200 nM

More lines, now with the values ahead:

- Kd [3]: 0.379 nM
- Kd [4]: > 200 nM
B2: cx4641 (bispecific antibody)
chain 1: EVQLVESGGGEVQPGGSLRLSCAASGSTFSSYHMSWFRQAPGKQREPVATSHHGGTTNYAGSVKGRFTISRDNAKNTVYLQMNTLRAEDTAVYYCKADHGYQGRGYWGQGTLVTVKPDKTHTCPPCPAPGGPSVFLFPPKPKDTLMISRTPEVTCVVVDVSHEDPEVKFNWYVDGVEVHNAKTKPREEQYNSTYRVVSVLTVLHQDWLNGKEYKCKVSNKALPAPIEKTISKAKGQPREPQVYTLPPCRDELTKNQVSLWCLVKGFYPSDIAVEWESNGQPENNYKTTPPVLDSDGSFFLYSKLTVDKSRWQQGNVFSCSVMHEALHNHYTQKSLSLSPTGGSGGGGIEPDIGGSGGSEVQLVESGGGLVQPGGSLRLSCAASGFTFNTYAMNWVRQAPGKCLEWVARIRSKYNNYATYYADSVKGRFTISRDDAKNTLYLQMSSLRAEDTAVYYCVRHGNFGNSYVSWFAYWGQGTLVTVKPQLQLQESGGGLVQAGDSLRLSCAASGFSFGSNVMMWVRQAPGKGPEWVSTIYSSGTGTFYADSVKGRFTISRNNAKNTLYLQMNSLKPDDTAVYYCATSGPVRGWGPRSQGTLVTVKP
chain 2: DKTHTCPPCPAPGGPSVFLFPPKPKDTLMISRTPEVTCVVVDVSHEDPEVKFNWYVDGVEVHNAKTKPREEQYNSTYRVVSVLTVLHQDWLNGKEYKCKVSNKALPAPIEKTISKAKGQPREPQVCTLPPSRDELTKNQVSLSCAVKGFYPSDIAVEWESNGQPENNYKTTPPVLDSDGSFFLVSKLTVDKSRWQQGNVFSCSVMHEALHNRYTQKSLSLSPTGGSGGGGIEPDIGGSGGSQAVVTQEPSLTVSPGGTVTLTCGSSTGAVTTSNYANWVQQKPGQAFRGLIGGTNKRAPGVPARFSGSLLGGKAALTISGAQPEDEADYYCALWYSNHWVFGCGTKLTVL
notes: Printed composition is the same as cx4645

- Kd [3]: 0.523 nM
- Kd [4]: > 200 nM
B3: cx3090 (bispecific antibody, not shown: a dimerising Fc or GST)
chain 1: B4 chain 1 with G120S, S123G, G125I, G126E, G127P, G128D, S129I, G132S
chain 2: B4 chain 2 with G3S, S6G, G8I, G9E, G10P, G11D, S12I, G15S
notes: as for B4
